T1: soluble hetero-EPOR (EPOR-CD131-Fc) (human, UniProt P19235 25-250; P32927 17-443)
T1 construct: extracellular domain; also called soluble EPOR-CD131-Fc; not shown: human Fc (captured by anti-human Fc)
T1 sequence (looked up) 1: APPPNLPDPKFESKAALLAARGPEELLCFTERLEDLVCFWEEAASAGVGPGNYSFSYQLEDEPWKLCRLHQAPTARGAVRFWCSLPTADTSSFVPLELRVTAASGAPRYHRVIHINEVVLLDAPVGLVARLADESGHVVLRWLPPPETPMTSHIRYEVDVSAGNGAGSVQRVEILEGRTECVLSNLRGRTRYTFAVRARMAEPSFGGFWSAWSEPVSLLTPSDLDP
T1 sequence (looked up) 2: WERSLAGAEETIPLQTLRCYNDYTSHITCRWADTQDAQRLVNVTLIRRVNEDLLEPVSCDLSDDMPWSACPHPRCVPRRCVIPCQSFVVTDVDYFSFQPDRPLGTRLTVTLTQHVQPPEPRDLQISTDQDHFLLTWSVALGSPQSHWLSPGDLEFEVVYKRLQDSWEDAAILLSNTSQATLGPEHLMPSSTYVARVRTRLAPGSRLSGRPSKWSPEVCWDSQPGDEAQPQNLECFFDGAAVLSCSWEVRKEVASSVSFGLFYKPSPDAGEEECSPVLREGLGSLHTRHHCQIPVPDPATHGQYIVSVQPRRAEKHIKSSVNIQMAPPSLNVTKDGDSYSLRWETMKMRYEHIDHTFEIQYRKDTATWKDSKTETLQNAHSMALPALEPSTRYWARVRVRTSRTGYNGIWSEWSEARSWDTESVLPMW

T2: human CD131 on 293T/CD131 cells (human, UniProt P32927 17-897)
T2 construct: whole, on cells; also called hCD131
T2 sequence (looked up): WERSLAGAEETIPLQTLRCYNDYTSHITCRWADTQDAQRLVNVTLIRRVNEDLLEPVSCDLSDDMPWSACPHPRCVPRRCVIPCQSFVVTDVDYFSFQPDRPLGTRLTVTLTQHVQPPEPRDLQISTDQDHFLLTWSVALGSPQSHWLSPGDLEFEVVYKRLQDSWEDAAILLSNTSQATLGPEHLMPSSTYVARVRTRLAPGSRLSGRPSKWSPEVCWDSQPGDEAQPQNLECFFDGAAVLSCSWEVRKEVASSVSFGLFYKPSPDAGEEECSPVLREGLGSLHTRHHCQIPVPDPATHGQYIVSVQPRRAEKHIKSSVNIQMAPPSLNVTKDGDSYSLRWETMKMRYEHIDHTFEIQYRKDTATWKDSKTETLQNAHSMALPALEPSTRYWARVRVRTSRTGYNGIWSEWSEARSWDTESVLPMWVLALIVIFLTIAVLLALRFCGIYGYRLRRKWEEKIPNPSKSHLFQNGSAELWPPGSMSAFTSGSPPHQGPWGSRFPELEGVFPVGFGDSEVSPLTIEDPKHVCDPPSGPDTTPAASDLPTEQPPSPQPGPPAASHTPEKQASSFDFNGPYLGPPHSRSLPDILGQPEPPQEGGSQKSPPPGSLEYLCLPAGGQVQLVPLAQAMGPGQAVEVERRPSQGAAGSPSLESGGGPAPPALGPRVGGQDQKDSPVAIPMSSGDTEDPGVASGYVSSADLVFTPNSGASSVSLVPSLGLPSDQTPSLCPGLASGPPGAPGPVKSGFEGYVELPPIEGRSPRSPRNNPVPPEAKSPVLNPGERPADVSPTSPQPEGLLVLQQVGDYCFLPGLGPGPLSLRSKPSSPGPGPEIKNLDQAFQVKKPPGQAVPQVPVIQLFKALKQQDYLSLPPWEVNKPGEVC

T3: hCD131-Fc (IME021, inhouse) (human, UniProt P32927 17-443, limits assumed)
T3 construct: also called soluble CD131 subunit of hetero-EPOR; not shown: Fc
T3 sequence (looked up): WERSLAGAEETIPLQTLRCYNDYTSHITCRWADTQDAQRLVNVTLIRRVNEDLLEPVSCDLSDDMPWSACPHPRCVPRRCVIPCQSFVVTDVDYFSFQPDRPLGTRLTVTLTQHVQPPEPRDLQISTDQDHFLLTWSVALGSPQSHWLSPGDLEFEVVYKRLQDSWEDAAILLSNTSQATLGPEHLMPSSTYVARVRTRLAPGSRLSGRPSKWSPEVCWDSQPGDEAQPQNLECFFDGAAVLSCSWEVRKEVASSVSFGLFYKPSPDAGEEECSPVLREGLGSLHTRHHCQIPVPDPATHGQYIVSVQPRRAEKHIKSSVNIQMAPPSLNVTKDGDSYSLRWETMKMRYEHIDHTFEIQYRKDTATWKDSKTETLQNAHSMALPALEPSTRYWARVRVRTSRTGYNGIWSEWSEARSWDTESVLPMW


Target: T1, soluble hetero-EPOR (EPOR-CD131-Fc)
Assay: Octet BLI, EPOR-CD131-Fc on anti-human Fc sensor, 10 nM EPO +/- hybridoma supernatant; competitor EPO

| % Inhibition | Binder |
| --- | --- |
| 9.5% | EPORab - M24 (antibody, V domains shown, hybridoma supernatant, ATX-GK mouse; also called hybridoma clone M24) VH: EVQLVESGGGLVKPGGSLRLSCAASGFTFTNAWMNWVRQAPGKGLEWIGRIKSKTAGETTDYAAPVKGRFTISRDDSKNTLYLQMNSLKTEDTAVYYCTTDPDYGDPYYYYYFMDVWGKGTTVTVSS VL: DIQMTQSPSSLSASIGDRVTISCRASQSISSYLNWYQQKPGKAPKLLIYGASSLQSGVPSRFSGSGSGTDFTLTISSLQPEDFATYYCQQSYSLPLTFGGGTKVEIK |
| 10.4% | EPORab - M19 (antibody, V domains shown, hybridoma supernatant, ATX-GK mouse; also called hybridoma clone M19) VH: QLQLQESGPGLVKPSETLSLTCTVSGGSISSSNHYWGWIRQPPGKGLEWIGTLYYSGSTYYEPSLKSRVTISVDTSMNQFSLNLSSVTATDTAVYNCARGDRYGPFDYWGQGTLVTVSS VL: DIVMTQSPSSLSASVGDRVTITCRASQGIRDDLGWYQQKPEKAPKRLICAASSLQSGVPSRFSGSGSGTEFTLTISSLQPEDFATYYCLQYNRYPWTFGQGTKVEIK |
| 18.1% | EPORab - M9 (antibody, V domains shown, hybridoma supernatant, ATX-GK mouse; also called hybridoma clone M9) VH: QVQLQESGPGLVKPSQTLSLTCDISGDSVSSNSAAWNWIRQSPSRGLEWLGRTYYRSKWYNDYAVAVKSRITINPDTSKNQFSLQLNSVTPEDTAVYYCARESSGWYEDYYYYYMDVWGKGTTVTVSS VL: not shown |
| 11.5% | EPORab - M87 (antibody, V domains shown, hybridoma supernatant, ATX-GK mouse; also called hybridoma clone M87) VH: QVQLVQSGAEVKKPGASMKVSCKASGYTFTQNHISWVRQAPGQGLEWMGWISAYSGNTNYAWKFQGRVTMTTDTSTNTAYMELRSLRSDDTAVYYCARDRGNWNDFAYWGRGTLVTVSS VL: not shown |
| 31.2% | EPORab - M1 (antibody, V domains shown, hybridoma supernatant, ATX-GK mouse; also called hybridoma clone M1) VH: QVQLQESGPGLVKPSQTLSLTCTVSGGSISSGGYYWSWIRQHPGKGLEWIGNIYYSGNPYYNPSLKSRLIISVDTSKNQFSLRLNSVTAADTAVYYCATFYYGSGSYYNEDYWGQGTLVTVSS VL: DIQMTQSPSSLSASVGDRVTITCRASQGIRIDLGWYQQKPGKAPKRLIYAASSLKSGVPSRFSGSGSGTEFTLTISSLQPEDFTTYFCLQHNSYPYTFGQGTKLEIK |
| 7.4% | EPORab - M52 (antibody, V domains shown, hybridoma supernatant, ATX-GK mouse; also called hybridoma clone M52) VH: QLQLQESGPGLAKPSETLSLTCTVSGVSISSNSYYWGWIRQPPGKGLEWIGNIYHSGRTYYNPSLRSRVTISVDTSKNQFSLKLNSVTAADTAVYYCARGYSYGAFDYWGQGTLVTVSS VL: DIQMTQSPSSLSASVGDRVTITCRASQGIRNDLGWYQQKPGKAPKRLIYAASSLQSGIPSRFSGSGSGTEFTLTISSLQPEDFATYYCLQHNNYPWTFGQGTKVEIK |
| 93.6% | EPORab - M2 (antibody, V domains shown, hybridoma supernatant, ATX-GK mouse; also called hybridoma clone M2) VH: QVQLVESGGGLVKPGGSLRLSCAASGFTFSDSYMSWIRQAPGKGLEWVSYISNSGSYMYYADSVKGRFTISRDNAKNSLYLQMNNLRAEDTAVYYCARDKLGIGDYWGQGTLVTVSS VL: DIQMTQSPSSLSASVGDRVTITCRASQGIRNDLGWFQQKPGKAPKRLIYAASRLQSGVPSRFSGSGSGTEFTLTISSLQPEDFATYCCLQHHTYPPTFGQGTKVEIK |
| 16% | EPORab - M54 (antibody, V domains shown, hybridoma supernatant, ATX-GK mouse; also called hybridoma clone M54) VH: QLQLQESGPGLVKPSETLSLTCSVSGGSISSSGYYWGWIRQPPGKGLDWIGTIYYSGNTNYNPSLNSRVTISVDTSRNQFSLKLRSVTAADTAVYYCARGYSYGPFDYWGQGTLVTVSS VL: EIVMTQSPATLSVSPGERATLSCRASQSVSSNLAWYQLKPGQAPRLLIYGASTRATGIPARFSGSGSGTEFTLTISSLQSEDFAVYYCHPYNNWPLTFGGGTKVEIK |
| 0.1% | EPORab - M71 (antibody, V domains shown, hybridoma supernatant, ATX-GK mouse; also called hybridoma clone M71) VH: QVQLVESGAEVKKPRASVKVSCKTSGYTFTRHYMHWVRQAPGQGLEWMGIINPNNNSTSYAQKFQGRITMTRDTSTSTVYMELSSLRSEDTAVYYCARFRIVGTTLYFDYWGQGTLVTVSS VL: EIVMTQSPATLSVSPGERATLSCRASQSVSSNLAWYQLKPGQAPRLLIYGASTRATGIPARFSGSGSGTEFTLTISSLQSEDFAVYYCHPYNNWPLTFGGGTKVEIK |
| -1.8% | EPORab - M80 (antibody, V domains shown, hybridoma supernatant, ATX-GK mouse; printed VH equals that of M2; also called hybridoma clone M80) VH: QVQLVESGGGLVKPGGSLRLSCAASGFTFSDSYMSWIRQAPGKGLEWVSYISNSGSYMYYADSVKGRFTISRDNAKNSLYLQMNNLRAEDTAVYYCARDKLGIGDYWGQGTLVTVSS VL: not shown |
| 18.7% | EPORab - M41 (antibody, V domains shown, hybridoma supernatant, ATX-GK mouse; also called hybridoma clone M41) VH: QVQLVESGGGLVQPGRSLRLSCAASGFTFDDYAIHWVRQAPGKGLEWVSGISYNSENIGYADSVKGRFTISRDNAKNSLYLQMNSLRSEDTALYYCAKDMFLTWFSSFDYWGQGTLVTVSS VL: ETKLTQSPGTLSLSPGERTTLSCRASQSISNNYLAWYQQKPGQAPRLLIYRASTRATGIPDRFSGSGSGTDFTLTIRRLEPEDFAVYYCQRYGRSPLTFGGGTKVEIK |
| -7.1% | EPORab - M37 (antibody, V domains shown, hybridoma supernatant, ATX-GK mouse; also called hybridoma clone M37) VH: QVQLQESGPGLVKPSGTLSLTCAVSGGSITTNNWWSWVRQSPGKGLEWIGEIYHSGNTNYNPSLKSRVTMSVDKSKNQFSLNLNSVIVADTAVYYCASALGTYYGAFDTWGQGTMVTVSA VL: DIQMTQSPSSLSASVGDRVTITCRASQSISNYLNWYQQKPGKAPKLLIYAASSLQSGVPSRFSGSGSGTDFTLTISSLQPEDFTTYYCQQSYGTPYTFGQGAKLQIK |
| -11.4% | EPORab - M43 (antibody, V domains shown, hybridoma supernatant, ATX-GK mouse; also called hybridoma clone M43) VH: QVQLQESGPGLVKPSGTLSLTCAVSGGSISSSNWWSWVRQPPGKGLEWIGEIYHSGSINYNPSLKSRVTISVDKSKNQFSLKLTSVTAADTAVYYCASALGNYYGAFDLWGQGTMVTVSS VL: DIVMTQSPSSLSASVGDRVTITCRASQTISSYLNWYQQKPGKAPKLLICAASSLQGGVPSRFSGSGSGTDFTLTISSLQPEDFAPYYCQQSYSTPYTFGQGTKLEIK |
| 31.3% | EPORab - M26 (antibody, V domains shown, hybridoma supernatant, ATX-GK mouse; also called hybridoma clone M26) VH: QVQLVQSGVEVKKPGASVKVSCKASGYAFSNNDISWVRQAPGQGLEWMAWITTSNGNTNYAPKLQGRVTMTTDTSTSTAYMELRSLKSDDTAVYYCARGGRTGYFDYWGQGTLVTVSS VL: not shown |
| 0.5% | EPORab - M38 (antibody, V domains shown, hybridoma supernatant, ATX-GK mouse; also called hybridoma clone M38) VH: QVQLVESGGGVVQPGRSLRLSCAASGFTFSSYGMHWVRQAPGKGLEWVAFIWYDGRNKNYVDSVKGRFTISRDNSKNTLYLQMNSLRAEDTAVYYCARDRGDYVFDYWGQGTLVTVSS VL: not shown |

Target: T2, human CD131 on 293T/CD131 cells
Assay: flow cytometry on 293T/CD131 cells, purified antibody, PE labeled secondary antibody

| binding result | Binder |
| --- | --- |
| no binding | hybridoma clone M2 (antibody, V domains shown, Hybridoma from ATX-GK mice; tested as supernatant (BLI) and purified (cell staining, Stat5 assay); also called EPORab - M2) VH: QVQLVESGGGLVKPGGSLRLSCAASGFTFSDSYMSWIRQAPGKGLEWVSYISNSGSYMYYADSVKGRFTISRDNAKNSLYLQMNNLRAEDTAVYYCARDKLGIGDYWGQGTLVTVSS VL: DIQMTQSPSSLSASVGDRVTITCRASQGIRNDLGWFQQKPGKAPKRLIYAASRLQSGVPSRFSGSGSGTEFTLTISSLQPEDFATYCCLQHHTYPPTFGQGTKVEIK |
| no binding | hybridoma clone M41 (antibody, V domains shown, Hybridoma from ATX-GK mice; tested as supernatant (BLI) and purified (cell staining, Stat5 assay); also called EPORab - M41) VH: QVQLVESGGGLVQPGRSLRLSCAASGFTFDDYAIHWVRQAPGKGLEWVSGISYNSENIGYADSVKGRFTISRDNAKNSLYLQMNSLRSEDTALYYCAKDMFLTWFSSFDYWGQGTLVTVSS VL: ETKLTQSPGTLSLSPGERTTLSCRASQSISNNYLAWYQQKPGQAPRLLIYRASTRATGIPDRFSGSGSGTDFTLTIRRLEPEDFAVYYCQRYGRSPLTFGGGTKVEIK |

Target: T3, hCD131-Fc (IME021, inhouse)
Assay: Octet BLI, antibody from supernatant captured on anti-mouse Fc biosensors, 30 nM soluble receptor Fc fusion

| binding result | Binder |
| --- | --- |
| binds | hybridoma clone M26 (antibody, V domains shown, Hybridoma from ATX-GK mice; also called EPORab - M26) VH: QVQLVQSGVEVKKPGASVKVSCKASGYAFSNNDISWVRQAPGQGLEWMAWITTSNGNTNYAPKLQGRVTMTTDTSTSTAYMELRSLKSDDTAVYYCARGGRTGYFDYWGQGTLVTVSS VL: not shown |
